{"source": "patent US20240254203A1", "target": "SARS COV-1 spike protein (SARS COV-1) (UniProt P59594)", "test": "cell-based or functional assay", "data": [{"substance": "soluble 80R scFv", "values": [{"measurement": "IC50, neutralization of SARS COV-1 by the soluble scFv", "value": 7.43, "unit": "nM"}]}]}
